Experimental data reported in article PMC4655364, “HdeB chaperone activity is coupled to its intrinsic dynamic properties” (Scientific Reports, 2015).

Molecular target: the molecule itself
Experiment: NMR backbone 15N relaxation (R2/R1, model-free analysis); pH 7.0, 5.0, 4.5 and 4.0; 25 °C, 800 MHz; 50 mM sodium phosphate, 45 mM citric acid

B1: E. coli HdeB (natural protein, UniProt P0AET2 30-108, looked up)
chain: ANESAKDMTCQEFIDLNPKAMTPVAWWMLHEETVYKGGDTVTLNETDLTQIPKVIEYCKKNPQKNLYTFKNQASNDLPN
notes: HdeB, periplasmic acid-resistant chaperone of E. coli; 79 residues; numbers count on: the mature protein, with the signal peptide excluded; Expressed from pET-28a(+); It speaks of 79 residues and numbers them on the mature protein; Samples were 15N- or 13C/15N-labelled; Each monomer has a Cys10-Cys58 disulfide bridge; also called HdeB dimer; HdeB homo-dimer; source: E. coli BL21(DE3)-T1R, …
In the case of B1, the “stoichiometry N” value is reported as 2.
